Target: T1, FGFR1c-Klotho complex (UniProt O35082+P11362)
T1 construct: The ectodomain of murine Klotho (A35 to K982) was purified from culture media; FLAG (C); made in house; host or cells: E. coli (FGFR1c); HEK293 conditioned media (Klotho ectodomain)
T1 sequence (P11362 142-365): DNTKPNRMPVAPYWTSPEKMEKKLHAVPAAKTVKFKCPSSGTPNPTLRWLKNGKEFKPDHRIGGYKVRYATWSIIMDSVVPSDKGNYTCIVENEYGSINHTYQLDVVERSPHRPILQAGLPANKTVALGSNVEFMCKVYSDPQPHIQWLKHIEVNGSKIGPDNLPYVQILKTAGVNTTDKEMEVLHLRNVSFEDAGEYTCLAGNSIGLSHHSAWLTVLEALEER
T1 sequence (O35082 35-982): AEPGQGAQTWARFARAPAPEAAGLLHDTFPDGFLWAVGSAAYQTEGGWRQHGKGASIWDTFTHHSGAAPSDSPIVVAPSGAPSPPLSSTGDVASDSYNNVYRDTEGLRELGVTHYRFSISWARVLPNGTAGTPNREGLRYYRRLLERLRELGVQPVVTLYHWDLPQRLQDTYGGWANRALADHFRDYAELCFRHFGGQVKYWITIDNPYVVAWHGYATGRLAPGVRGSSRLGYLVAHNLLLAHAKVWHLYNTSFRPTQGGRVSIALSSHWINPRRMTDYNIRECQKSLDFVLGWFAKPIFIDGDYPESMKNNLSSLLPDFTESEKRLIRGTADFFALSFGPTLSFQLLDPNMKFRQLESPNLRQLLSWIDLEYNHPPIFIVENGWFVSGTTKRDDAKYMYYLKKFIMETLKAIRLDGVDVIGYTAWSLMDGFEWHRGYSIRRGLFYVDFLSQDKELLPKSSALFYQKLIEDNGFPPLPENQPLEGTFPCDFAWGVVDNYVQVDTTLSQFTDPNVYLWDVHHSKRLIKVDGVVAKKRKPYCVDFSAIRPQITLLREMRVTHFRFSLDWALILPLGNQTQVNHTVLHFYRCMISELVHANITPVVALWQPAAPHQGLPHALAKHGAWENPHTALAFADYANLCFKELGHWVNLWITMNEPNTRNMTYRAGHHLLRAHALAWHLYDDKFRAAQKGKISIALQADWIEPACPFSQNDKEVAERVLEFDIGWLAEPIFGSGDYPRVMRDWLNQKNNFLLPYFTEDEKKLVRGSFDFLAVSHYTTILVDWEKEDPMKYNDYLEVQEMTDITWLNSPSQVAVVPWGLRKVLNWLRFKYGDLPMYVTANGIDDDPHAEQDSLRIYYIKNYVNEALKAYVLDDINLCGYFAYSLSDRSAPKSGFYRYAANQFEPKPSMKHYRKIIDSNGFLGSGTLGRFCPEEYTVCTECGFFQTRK
Experiment: Size-exclusion chromatography of ternary complex formation
Type: binding, human FGFR1c, murine Klotho
Conditions: 1.0 M NaCl, pH7.5
Description: Size-exclusion chromatography may also be used to determine that an agent specifically binds the binary FGFR-Klotho complex. One aspect of the present invention utilizes size-exclusion chromatography. The size-exclusion chromatography experiments were performed on a HiLoad™ 16/60 Superdex™ 200 prep grade column. Because of poor solubility of FGF23 proteins and FGFR1c ectodomain in low salt buffer, the experiments were carried out with 25 mM HEPES-NaOH buffer, pH7.5, containing 1.0 M NaCl. Sample injection volume was 0.3 to 1.0 ml, and the flow rate was 1.0 ml min^−1. Protein retention times were determined by absorbance at 280 nm. The column was calibrated with ferritin (440 kDa), immunoglobulin G (150 kDa), albumin (69.3 kDa), ovalbumin (44.3 kDa), and carbonic anhydrase (28.8 kDa). The void volume was determined using blue dextran 2,000. […]
Size-exclusion chromatography experiments were performed on a HiLoad™ 16/60 Superdex™ 200 prep grade column (GE Healthcare) mounted on an ÄKTApurifier (GE Healthcare). […] Protein retention times were determined by absorbance at 280 nm. […] The void volume was determined using blue dextran 2,000. […]

B1: FGF23^28-251: human FGF23 (A28 to I251), bioactive full-length ligand expressed in E. coli (protein, listed as Homo sapiens)
chain: ASPLLGSSWGGLIHLYTATARNSYHLQIHKNGHVDGAPHQTIYSALMIRSEDAGFVVITGVMSRRYLCMDFRGNIFGSHYFDPENCRFQHQTLENGYDVYHSPQYHFLVSLGRAKRAFLPGMNPPPYSQFLSRRNEIPLIHFNTPIPRRHTRSAEDDSERDPLNVLKPRARMTPAPASCSQELPSAEDNSPMASDPLGVVRGGRVNTHAGGTGPEGCRPFAKFI
B1 was tested, and the “co-elution with the FGFR1c-Klotho complex” value was “co-eluted with the FGFR1c-Klotho complex”.

From US8889621B2, “Inhibiting binding of FGF23 to the binary FGFR-Klotho complex for the treatment of hypophosphatemia” (New York University, priority 2009, dated 2014)
